Publication PMC7899134 (Cell, 2021)

B5: human p40 (23-328), crystallography construct (natural protein)
chain: IWELKKDVYVVELDWYPDAPGEMVVLTCDTPEEDGITWTLDQSSEVLGSGKTLTIQVKEFGDAGQYTCHKGGEVLSHSLLLLHKKEDGIWSTDILKDQKEPKNKTFLRCEAKNYSGRFTCWWLTTISTDLTFSVKSSRGSSDPQGVTCGAATLSAERVRGDNKEYEYSVECQEDSACPAAEESLPIEVMVDAVHKLKYENYTSSFFIRDIIKPDPPKNLQLKPLKNSRQVEVSWEYPDTWSTPHSYFSLTFCVQVQGKSKREKKDRVFTDKTSATVICRKNASISVRAQDRYYSSSWSEWASVPCS
B7: human IL-23R (1–315), crystallography construct (domain or fragment, UniProt Q5VWK5-1 24-315, looked up)
chain: GITNINCSGHIWVEPATIFKMGMNISIYCQAAIKNCQPRKLHFYKNGIKERFQITRINKTTARLWYKNFLEPHASMYCTAECPKHFQETLICGKDISSGYPPDIPDEVTCVIYEYSGNMTCTWNAGKLTYIDTKYVVHVKSLETEEEQQYLTSSYINISTDSLQGGKKYLVWVQAANALGMEESKQLQIHLDDIVIPSAAVISRAETINATVPKTIIYWDSQTTIEKVSCEMRYKATTNQTWNVKEFDTNFTYVQQSEFYLEPNIKYVFQVRCQETGKRYWQPWSSLFFHKT

Key:
[1] = biological target: T1, human IL-12Rβ1 D1–D2 (25–239) (human, UniProt P42701 25-239); assay: SPR
[2] = biological target: affi-IL-12Rβ1 D1–D5 (25–542) Tyr109Ser Gln132Leu (human, UniProt P42701 25-542, Tyr109Ser | Gln132Leu); assay: cryo-EM structure
[3] = biological target: T2, human IL-23R (1–309) (human, UniProt Q5VWK5-1 24-309); assay: cryo-EM structure
T2 sequence (looked up): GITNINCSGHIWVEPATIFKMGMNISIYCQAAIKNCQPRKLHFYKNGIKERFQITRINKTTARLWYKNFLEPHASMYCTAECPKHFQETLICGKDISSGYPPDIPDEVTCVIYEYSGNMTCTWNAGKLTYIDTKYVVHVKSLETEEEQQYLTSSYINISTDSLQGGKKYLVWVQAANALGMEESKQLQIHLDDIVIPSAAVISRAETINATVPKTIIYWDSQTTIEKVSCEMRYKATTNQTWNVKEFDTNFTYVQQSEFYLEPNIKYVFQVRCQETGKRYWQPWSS

[4] = biological target: T1, human IL-12Rβ1 D1–D2 (25–239); assay: crystal structure
[5] = biological target: affi-IL-12Rβ1 D1–D2 (25–239) Tyr109Ser Gln132Leu (human, UniProt P42701 25-239, Tyr109Ser | Gln132Leu); assay: SPR
[6] = biological target: B5; assay: crystal structure
[7] = biological target: T3, IL-23 (IL-23p19/p40), crystallography construct (human, UniProt Q9NPF7 20-189; P29460 23-328); assay: crystal structure
T3 sequence (looked up) 1: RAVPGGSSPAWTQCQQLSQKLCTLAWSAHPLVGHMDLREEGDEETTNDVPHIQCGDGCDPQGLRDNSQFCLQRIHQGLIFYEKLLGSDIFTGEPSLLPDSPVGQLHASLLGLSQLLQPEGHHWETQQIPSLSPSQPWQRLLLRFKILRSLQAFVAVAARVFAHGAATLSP
T3 sequence (looked up) 2: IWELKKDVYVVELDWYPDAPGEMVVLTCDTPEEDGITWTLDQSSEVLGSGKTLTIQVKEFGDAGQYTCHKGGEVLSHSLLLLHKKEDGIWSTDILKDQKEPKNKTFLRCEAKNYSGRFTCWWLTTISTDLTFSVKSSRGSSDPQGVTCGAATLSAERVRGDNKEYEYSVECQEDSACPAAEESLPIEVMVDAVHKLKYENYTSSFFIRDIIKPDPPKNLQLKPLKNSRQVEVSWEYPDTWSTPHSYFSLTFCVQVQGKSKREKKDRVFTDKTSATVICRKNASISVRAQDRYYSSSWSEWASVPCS

[8] = biological target: B7; assay: crystal structure

B1: IL-23 (IL-23p19 and p40), biotinylated, SPR construct (complex)
chain 1: PAWTQCQQLSQKLCTLAWSAHPLVGHMDLREEGDEETTNDVPHIQCGDGCDPQGLRDNSQFCLQRIHQGLIFYEKLLGSDIFTGEPSLLPDSPVGQLHASLLGLSQLLQPEGHHWETQQIPSLSPSQPWQRLLLRFKILRSLQAFVAVAARVFAHGAATLSP
chain 2: IWELKKDVYVVELDWYPDAPGEMVVLTCDTPEEDGITWTLDQSSEVLGSGKTLTIQVKEFGDAGQYTCHKGGEVLSHSLLLLHKKEDGIWSTDILKDQKEPKNKTFLRCEAKNYSGRFTCWWLTTISTDLTFSVKSSRGSSDPQGVTCGAATLSAERVRGDNKEYEYSVECQEDSACPAAEESLPIEVMVDAVHKLKYENYTSSFFIRDIIKPDPPKNLQLKPLKNSRQVEVSWEYPDTWSTPHSYFSLTFCVQVQGKSKREKKDRVFTDKTSATVICRKNASISVRAQDRYYSSSWSEWASVPCS
modifications: biotin on the AviTag (BirA ligase)
B1: binds [1].

B2: IL-23 (IL-23p19 28–189 / p40 23–328 with BirA substrate peptide), T. ni expressed (complex, human)
chain 1: PAWTQCQQLSQKLCTLAWSAHPLVGHMDLREEGDEETTNDVPHIQCGDGCDPQGLRDNSQFCLQRIHQGLIFYEKLLGSDIFTGEPSLLPDSPVGQLHASLLGLSQLLQPEGHHWETQQIPSLSPSQPWQRLLLRFKILRSLQAFVAVAARVFAHGAATLSP
chain 2: IWELKKDVYVVELDWYPDAPGEMVVLTCDTPEEDGITWTLDQSSEVLGSGKTLTIQVKEFGDAGQYTCHKGGEVLSHSLLLLHKKEDGIWSTDILKDQKEPKNKTFLRCEAKNYSGRFTCWWLTTISTDLTFSVKSSRGSSDPQGVTCGAATLSAERVRGDNKEYEYSVECQEDSACPAAEESLPIEVMVDAVHKLKYENYTSSFFIRDIIKPDPPKNLQLKPLKNSRQVEVSWEYPDTWSTPHSYFSLTFCVQVQGKSKREKKDRVFTDKTSATVICRKNASISVRAQDRYYSSSWSEWASVPCS
modifications: biotinylated in vitro for the yeast staining
B2: binds [2].

B3: human IL-23p19 (28–189), T. ni expressed (natural protein, UniProt Q9NPF7 28-189, looked up)
chain: PAWTQCQQLSQKLCTLAWSAHPLVGHMDLREEGDEETTNDVPHIQCGDGCDPQGLRDNSQFCLQRIHQGLIFYEKLLGSDIFTGEPSLLPDSPVGQLHASLLGLSQLLQPEGHHWETQQIPSLSPSQPWQRLLLRFKILRSLQAFVAVAARVFAHGAATLSP
B3: binds [3].

B4: human p40 (23–328) with BirA substrate peptide, T. ni expressed (natural protein, UniProt P29460 23-328, looked up)
chain: IWELKKDVYVVELDWYPDAPGEMVVLTCDTPEEDGITWTLDQSSEVLGSGKTLTIQVKEFGDAGQYTCHKGGEVLSHSLLLLHKKEDGIWSTDILKDQKEPKNKTFLRCEAKNYSGRFTCWWLTTISTDLTFSVKSSRGSSDPQGVTCGAATLSAERVRGDNKEYEYSVECQEDSACPAAEESLPIEVMVDAVHKLKYENYTSSFFIRDIIKPDPPKNLQLKPLKNSRQVEVSWEYPDTWSTPHSYFSLTFCVQVQGKSKREKKDRVFTDKTSATVICRKNASISVRAQDRYYSSSWSEWASVPCS
B4: binds [2].

B5: binds [4].

B6: human p40 (23–328) alone, biotinylated, SPR construct (natural protein, UniProt P29460 23-328, looked up)
chain: IWELKKDVYVVELDWYPDAPGEMVVLTCDTPEEDGITWTLDQSSEVLGSGKTLTIQVKEFGDAGQYTCHKGGEVLSHSLLLLHKKEDGIWSTDILKDQKEPKNKTFLRCEAKNYSGRFTCWWLTTISTDLTFSVKSSRGSSDPQGVTCGAATLSAERVRGDNKEYEYSVECQEDSACPAAEESLPIEVMVDAVHKLKYENYTSSFFIRDIIKPDPPKNLQLKPLKNSRQVEVSWEYPDTWSTPHSYFSLTFCVQVQGKSKREKKDRVFTDKTSATVICRKNASISVRAQDRYYSSSWSEWASVPCS
modifications: biotin on the AviTag (BirA ligase)
B6: binds [1]; binds [5].

B7: binds [6]; binds [7].

B8: human IL-23p19 (20-189), crystallography construct (natural protein, UniProt Q9NPF7 20-189, looked up)
chain: RAVPGGSSPAWTQCQQLSQKLCTLAWSAHPLVGHMDLREEGDEETTNDVPHIQCGDGCDPQGLRDNSQFCLQRIHQGLIFYEKLLGSDIFTGEPSLLPDSPVGQLHASLLGLSQLLQPEGHHWETQQIPSLSPSQPWQRLLLRFKILRSLQAFVAVAARVFAHGAATLSP
B8: binds [8].
